Results: article PMC7032593 (Nature cell biology, 2019)
One block for each binder: values may come before it.

What was measured:
[1] = target: ATG16L1β (full-length human ATG16L1, β isoform) (human, UniProt Q676U5 1-607); assay: tandem affinity co-purification
[2] = target: GST-ATG12-5–16L1β complex (human, UniProt O94817 1-140; Q9H1Y0 1-275; Q676U5 1-607); assay: pull-down
Chain of GST-ATG12-5–16L1β complex (Q676U5 whole entry, one chain of several): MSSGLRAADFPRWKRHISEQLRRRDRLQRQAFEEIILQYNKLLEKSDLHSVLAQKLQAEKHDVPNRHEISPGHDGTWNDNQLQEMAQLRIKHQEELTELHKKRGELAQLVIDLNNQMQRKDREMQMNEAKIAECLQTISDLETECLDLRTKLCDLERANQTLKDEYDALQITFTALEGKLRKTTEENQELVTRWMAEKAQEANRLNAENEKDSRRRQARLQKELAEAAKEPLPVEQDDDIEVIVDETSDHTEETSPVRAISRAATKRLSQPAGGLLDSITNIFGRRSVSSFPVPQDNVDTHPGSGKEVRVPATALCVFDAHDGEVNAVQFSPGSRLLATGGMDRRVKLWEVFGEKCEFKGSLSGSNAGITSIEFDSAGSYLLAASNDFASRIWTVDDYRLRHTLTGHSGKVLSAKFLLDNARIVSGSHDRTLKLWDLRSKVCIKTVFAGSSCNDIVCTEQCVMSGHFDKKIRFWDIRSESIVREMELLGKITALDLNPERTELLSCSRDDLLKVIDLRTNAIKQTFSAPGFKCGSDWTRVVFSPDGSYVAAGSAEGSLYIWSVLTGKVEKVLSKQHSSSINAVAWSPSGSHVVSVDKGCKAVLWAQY

Chain of ATG16L1β (full-length human ATG16L1, β isoform) (Q676U5 whole entry, canonical isoform): as the sequence (Q676U5 whole entry, one chain of several) above

binding result [1]: binds
B1: ATG12–ATG5 conjugate (GST-ATG12 with untagged ATG5) (complex, human)
chain 1: MAEEPQSVLQLPTSIAAGGEGLTDVSPETTTPEPPSSAAVSPGTEEPAGDTKKKIDILLKAVGDTPIMKTKKWAVERTRTIQGLIDFIKKFLKLVASEQLFIYVNQSFAPSPDQEVGTLYECFGSDGKLVLHYCKSQAWG
chain 2: MTDDKDVLRDVWFGRIPTCFTLYQDEITEREAEPYYLLLPRVSYLTLVTDKVKKHFQKVMRQEDISEIWFEYEGTPLKWHYPIGLLFDLLASSSALPWNITVHFKSFPEKDLLHCPSKDAIEAHFMSCMKEADALKHKSQVINEMQKKDHKQLWMGLQNDRFDQFWAINRKLMEYPAEENGFRYIPFRIYQTTTERPFIQKLFRPVAADGQLHTLGDLLKEVCPSAIDPEDGEKKNQVMIHGIEPMLETPLQWLSEHLSYPDNFLHISIIPQPTD

binding result [2]: binds
B2: ATG3 WT (enzyme)
chain: not shown
